The test system of experiment [1] is differentiating ES cells (J1). The experiment can be described thus: Confocal microscopy of vWF and Oct-4 staining in differentiating ES cells. The experiment is classed as cell-based, mouse. As to conditions: for vWF expression (confocal microscopy): FIG. 15A, treated differentiating ES cells; for Oct-4 levels of differentiating cells (confocal microscopy): FIG. 15B. Here is the method:
(§1) Mouse embryonic stem cells (J1) (gift from Bevin Engelward, Mass. Institute of Technology, Cambridge, Mass.) were grown in DMEM with 2 mM L-glutamine (GIBCO, Carlsbad, Calif.) adjusted to contain […] sodium pyruvate, 10 mM nonessential amino acids and 1.5 g/L sodium bicarbonate, with 15% fetal bovine serum (Hyclone, South Logan, Utah) and supplemented with 100 units/mL penicillin G (Sigma, St. Louis, Mo.), 100 μg/mL streptomycin sulfate (Sigma), 30 mM beta-mercaptoethanol (Sigma) and 1000 units/ml murine leukemia inhibitory factor, LIF (Chemicon, Temecula, Calif.). The cells were plated in 10 cm^2 cell culture dishes, coated with 0.1% gelatin B (Sigma) and grown at 37° C. in a 5% CO2 humidifier incubator. The culture medium was changed every 2 days. The cells were subcultured at a split ratio of 1:10 when they reached 80% to 90% confluency, using a 0.25% trypsin-EDTA solution (Sigma). To induce formation of embryoid bodies and differentiation into endothelial cells, J1 cells were plated at a density of 1.25×10^5 cells/100 mm dish, or 3×10^4 cells/6 wells and cultured in the absence of LIF. Fresh media was replenished every 2 days.
Heparinase III (Hep-III) was prepared as described previously (Godavarti, R., et al. (1996) Biochemistry 35, 6846-52). Heparinase I (Hep-I) was a generous gift of Momenta Pharmaceuticals (Cambridge, Mass.). Sodium chlorate and heparin were purchased from Sigma and Cambrex BioWhittaker (East Rutherford, N.J.), respectively. To enzymatically modify the HSGAG glycome signature of the cells, cells were washed with phosphate buffer saline (PBS) and incubated with Hep-I or Hep-III for 30 minutes every day at 37° C. in serum free DMEM. Digested HSGAG residues were removed by washing the cells, and cells were then fed with fresh media. In an additional experiment, cells were cultured with medium containing sodium chlorate, which blocks the sulfation of HSGAGs. In a reversal experiment, heparin was added to the culture to overcome the chlorate induced synthetic block. Treated cells were analyzed for differentiation into endothelial cells between day 3 and day 15. Hep-III was added to the cells at a concentration of 2.5 μg/mL, Hep-I was added at a concentration of 1.5 μg/mL, sodium chlorate at 10 mM and heparin (20 μg). The concentrations of enzymes were optimized to exhaustively cleave all cell surface HSGAGs in the given period of time. All enzymes and chemicals were diluted in serum free DMEM.
For microscopic analysis of endothelial cells, the differentiating J1 cells were fixed in cold methanol at designated time points, blocked in goat serum and probed overnight with a rabbit primary antibody against vWF, an endothelial cell marker, or Oct-4, a stem cell marker. The sections were washed and re-probed with a goat secondary antibody coupled to FITC. The nuclei were counterstained with propidium iodide. Images were captured using a […] LSM510 confocal microscope at a 512×512 pixels resolution (Leica, Bannockburn, Ill.). Fluorochromes were excited with 488 nm and 543 nm laser lines, and the images were captured using 505-530 BP and 565-615 BP filters at a 512×512 pixels resolution.
To dissect the role of HSGAG structure in ES cell differentiation, the cell surface and extracellular HSGAG moieties of differentiating ES cells were modified using an enzymatic and pharmacological approach. Specifically, differentiating ES cells were incubated with Hep-I or Hep-III for 30 minutes every day to cleave the cell surface and extracellular matrix (ECM) HSGAGs at structurally distinct sites, or cultured in media supplemented with sodium chlorate, which is a pharmacological inhibitor of HSGAG biosynthesis (Safaiyan, F., et al. (1999) J Biol Chem 274, 36267-73). Hep-I cleaves HSGAGs at highly sulfated regions, and Hep-III cleaves HSGAGs at undersulfated regions (Linhardt, R. J., et al. (1990) Biochemistry 29, 2611-7; Godavarti, R., and Sasisekharan, R. (1996) Biochem Biophys Res Commun 229, 770-7). […]

Experiment [2] relates to differentiating ES cells (J1). The experiment can be described thus: Flow cytometry of vWF in differentiating ES cells after enzymatic or pharmacological modification of HSGAGs. The experiment is classed as cell-based, mouse. As to conditions: FIG. 12B, Hep-I 1.5 μg/mL or Hep-III 2.5 μg/mL 30 minutes every day, sodium chlorate 10 mM in medium. The protocol: as §1
Heparinase III (Hep-III) was prepared as described previously (Godavarti, R., et al. (1996) Biochemistry 35, 6846-52). […] Treated cells were analyzed for differentiation into endothelial cells between day 3 and day 15. […]
Cells were harvested at various time points during differentiation, incubated with rat monoclonal antibody against CD16/CD32 (1:50 dilution, Pharmingen, San Diego, Calif.) to block Fey receptors and incubated further with a primary antibody against von Willebrand factor (vWF) (Dako (Carpinteria, Calif.), rabbit polyclonal, added at a 1:100 dilution). […] Cells were then washed twice and were incubated with FITC-conjugated secondary antibody (Jackson ImmunoResearch, West Grove, Pa.) in a 1:100 dilution, washed twice and taken up in OptiMEM (GIBCO/BRL, Carlsbad, Calif.) and analyzed on a Becton Dickinson (Franklin Lakes, N.J.) FACScan flow cytometer (excitation 488 nm, argon laser; emission 580/30). […]
A general note: Flow cytometry measures light scatter and fluorescence of single cells or particles in a stream.

These results are taken from patent publication US20100119494A1, “METHODS AND COMPOSITIONS RELATED TO MODULATING THE EXTRACELLULAR STEM CELL ENVIRONMENT” (Massachusetts Institute of Technology, priority 2005, published 2010).

With `[O-][Cl+2]([O-])O` [sodium chlorate, reference compound], in experiment [1], the “vWF expression (confocal microscopy)” value is “inhibitory effects” and the “Oct-4 levels of differentiating cells (confocal microscopy)” value (shortened to “Oct-4 levels of differentiating cells”) is on record as “none of the treatments had significant effects”. Also, the “decrease of the proportion of cells expressing detectable levels of vWF” value (shortened to “decrease”) in experiment [2] is recorded as “approximately 5 fold”.

B1: Hep-I: HSGAG-degrading enzyme; cleaves HSGAGs at highly sulfated regions; gift of Momenta Pharmaceuticals (protein, UniProt Q05819 22-384, looked up)
Heparin lyase I: QQKKSGNIPYRVNVQADSAKQKAIIDNKWVAVGINKPYALQYDDKLRFNGKPSYRFELKAEDNSLEGYAAGETKGRTELSYSYATTNDFKKFPPSVYQNAQKLKTVYHYGKGICEQGSSRSYTFSVYIPSSFPDNATTIFAQWHGAPSRTLVATPEGEIKTLSIEEFLALYDRMIFKKNIAHDKVEKKDKDGKITYVAGKPNGWKVEQGGYPTLAFGFSKGYFYIKANSDRQWLTDKADRNNANPENSEVMKPYSSEYKTSTIAYKMPFAQFPKDCWITFDVAIDWTKYGKEANTILKPGKLDVMMTYTKNKKPQKAHIVNQQEILIGRNDDDGYYFKFGIYRVGNSTVPVTYNLSGYSETAR
For B1, in experiment [1], the “vWF expression (confocal microscopy)” value is listed as “inhibitory effects” and the “Oct-4 levels of differentiating cells” value is listed as “none of the treatments had significant effects”. Further, the “decrease” value in experiment [2] is given as “approximately 5 fold”.

B2: Hep-III: HSGAG-degrading enzyme; cleaves HSGAGs at undersulfated regions (protein, UniProt Q59289 25-659, looked up)
Heparin-sulfate lyase: QSSSITRKDFDHINLEYSGLEKVNKAVAAGNYDDAAKALLAYYREKSKAREPDFSNAEKPADIRQPIDKVTREMADKALVHQFQPHKGYGYFDYGKDINWQMWPVKDNEVRWQLHRVKWWQAMALVYHATGDEKYAREWVYQYSDWARKNPLGLSQDNDKFVWRPLEVSDRVQSLPPTFSLFVNSPAFTPAFLMEFLNSYHQQADYLSTHYAEQGNHRLFEAQRNLFAGVSFPEFKDSPRWRQTGISVLNTEIKKQVYADGMQFELSPIYHVAAIDIFLKAYGSAKRVNLEKEFPQSYVQTVENMIMALISISLPDYNTPMFGDSWITDKNFRMAQFASWARVFPANQAIKYFATDGKQGKAPNFLSKALSNAGFYTFRSGWDKNATVMVLKASPPGEFHAQPDNGTFELFIKGRNFTPDAGVFVYSGDEAIMKLRNWYRQTRIHSTLTLDNQNMVITKARQNKWETGNNLDVLTYTNPSYPNLDHQRSVLFINKKYFLVIDRAIGEATGNLGVHWQLKEDSNPVFDKTKNRVYTTYRDGNNLMIQSLNADRTSLNEEEGKVSYVYNKELKRPAFVFEKPKKNAGTQNFVSIVYPYDGQKAPEISIRENKGNDFEKGKLNLTLTINGKQQLVLVP
As to B2, in experiment [1], the “vWF expression (confocal microscopy)” value is listed as “inhibitory effects” and the “Oct-4 levels of differentiating cells” value is reported as “none of the treatments had significant effects”. Moreover, the “decrease” value in experiment [2] is recorded as roughly 3 fold.
